This note sets out measurements from patent US5597705.

For data set [1], the system named is thyroid hormone (T3) receptor, GC2 nuclear extract (Rattus norvegicus). In words: cell_activity. The settings on record: G29TK one copy, T3 stimulation of CAT in GC2 cells; three copies five-fold.
Data set [2] shares this test system. In words: pulldown. The settings on record: equilibrium binding constant by ABCD assay; buffer A, poly(dI-dC), 22 C.
Data set [3] relates to glucocorticoid receptor alpha (hGR, pRShGR-alpha) (Homo sapiens). In words: cell_activity. The settings on record: CAT activity with DEX in CV-1 cells; wild-type reference.

As usually defined, the Kd is the free concentration of one partner at which half of the binding sites on the other are occupied at equilibrium, for simple one-to-one binding.

For G186-158 (rat GH -186 to -158), the activity in data set [1] is 2.9 fold. In data set [2], G209-146 (rat GH -209 to -146) gave a Kd of 1.4 nM. As to MMTV LTR (GMCAT), the activity in data set [3] was 100%.
